Test results as given in patent US20150274826A1 (ARCH ONCOLOGY, published 2015).

T1: mouse CD47 (mouse, UniProt Q61735 19-303)
T1 construct: whole, on cells; also called CD47 on mouse RBCs; CD47 on 4T1 cells
T1 sequence (looked up): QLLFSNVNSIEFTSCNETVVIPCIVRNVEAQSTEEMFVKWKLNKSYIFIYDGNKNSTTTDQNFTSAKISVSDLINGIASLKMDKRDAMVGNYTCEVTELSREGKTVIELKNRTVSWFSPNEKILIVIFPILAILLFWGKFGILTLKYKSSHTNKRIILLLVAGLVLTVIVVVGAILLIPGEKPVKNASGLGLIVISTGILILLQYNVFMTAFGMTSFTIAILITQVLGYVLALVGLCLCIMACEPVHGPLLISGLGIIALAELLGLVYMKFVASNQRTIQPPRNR

T2: rat CD47 (rat, UniProt P97829 19-303)
T2 construct: whole, on cells; also called CD47 on rat RBCs
T2 sequence (looked up): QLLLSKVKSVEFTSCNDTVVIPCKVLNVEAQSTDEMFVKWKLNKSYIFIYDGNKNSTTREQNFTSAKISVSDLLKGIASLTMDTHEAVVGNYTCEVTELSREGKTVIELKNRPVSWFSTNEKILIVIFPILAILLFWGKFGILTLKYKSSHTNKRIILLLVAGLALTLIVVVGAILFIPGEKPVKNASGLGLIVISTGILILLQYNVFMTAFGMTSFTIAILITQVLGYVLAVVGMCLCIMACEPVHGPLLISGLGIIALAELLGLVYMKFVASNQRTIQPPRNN

T3: dog CD47 (dog, UniProt A0A8I3PM61 19-310)
T3 construct: also called CD47 on dog RBCs
T3 sequence: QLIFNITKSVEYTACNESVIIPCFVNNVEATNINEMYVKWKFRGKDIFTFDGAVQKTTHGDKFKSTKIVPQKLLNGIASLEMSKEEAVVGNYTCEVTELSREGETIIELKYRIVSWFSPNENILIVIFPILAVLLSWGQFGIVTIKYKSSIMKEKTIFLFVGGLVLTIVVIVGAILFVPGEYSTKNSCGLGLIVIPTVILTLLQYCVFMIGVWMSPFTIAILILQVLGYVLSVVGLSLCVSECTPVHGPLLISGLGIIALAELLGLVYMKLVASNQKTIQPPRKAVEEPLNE

T4: pig CD47 (pig, UniProt Q9GKE8 19-303)
T4 construct: whole, on cells; also called CD47 on porcine RBCs
T4 sequence (looked up): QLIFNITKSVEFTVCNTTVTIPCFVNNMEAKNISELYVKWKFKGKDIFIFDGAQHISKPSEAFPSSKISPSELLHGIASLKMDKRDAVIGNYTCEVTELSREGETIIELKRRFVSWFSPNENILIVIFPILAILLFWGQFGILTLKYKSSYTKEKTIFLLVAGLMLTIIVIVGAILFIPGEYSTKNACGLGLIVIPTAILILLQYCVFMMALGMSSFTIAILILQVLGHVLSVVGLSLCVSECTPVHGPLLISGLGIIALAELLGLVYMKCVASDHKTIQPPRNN


Key:
mouse CD47 [1] = target: T1, mouse CD47; assay: cell-based ELISA on mouse 4T1 cells, apparent Kd
Description: (§1) OV10 cells are grown in IMDM medium containing 10% heat inactivated fetal bovine serum (BioWest; S01520) and 4T1 cells are grown in RMPI medium containing 10% heat inactivated fetal bovine serum (BioWest; S01520). One day before assay, 3×10⁴ cells are plated in 96 well cell bind plates (Corning #3300, VWR #66025-626) so that they are 95-100% confluent at the time of assay. Cells are washed and various concentrations of purified antibodies added in either IMDM or RPMI at 37° C. for 1 hour in […]. Cells are then washed with media and incubated for an additional hour at 37° C. with HRP labeled secondary anti-human antibody (Promega) diluted 1/2500 in media. Cells are washed three times with PBS, and the peroxidase substrate 3,3′,5,5′-tetramethylbenzidine is added (Sigma; Catalog #T4444). Reactions are terminated by the addition of HCl to 0.7N, and absorbance at 450 nm is determined using a Tecan model Infinite M200 plate reader. The apparent binding affinities of these clones to human and mouse cells is determined by non-linear fits (Prism GraphPad software). […] Agglutination of human RBCs is assessed following incubation of human RBCs with various concentrations of humanized blocking only clones. Blood is diluted (1:50) and washed 3 times with PBS/EDTA/BSA. RBCs are added to U-bottomed 96 well plates with equal volumes of the antibodies (75 μl) and incubated for 3 hrs at 37° C. and overnight at 4° C.

human CD47 [2] = target: T5, human CD47 (human, UniProt Q08722 19-323); assay: cell-based ELISA on human OV10 cells, apparent Kd
T5 construct: whole, on cells; also called CD47 on human RBCs; CD47 on OV10 cells
Description: as §1

human CD47 [3] = target: T5, human CD47; assay: flow cytometry on human RBCs, apparent Kd, non-linear fit
Description: (§2) RBCs are incubated for 60 minutes on ice with tissue culture supernatants containing the secreted humanized antibodies at a concentration of 10 ng/ml in a solution of phosphate buffered saline, pH 7.2, 2.5 mM EDTA (PBS+E), or with various concentrations of purified antibodies. Cells are then washed with cold PBS+E, and incubated for an additional hour on ice with FITC labeled donkey anti-human antibody (Jackson Immuno Research Labs, West Grove, Pa.; Catalogue #709-096-149) in PBS+E. Cells are then washed with PBS+E, and antibody binding is analyzed using a BD FACSAria Cell Sorter (Becton Dickinson) or a C6 Accuri Flow Cytometer (Becton Dickinson). Antibody binding is quantitated by comparison of mean fluorescence values relative to that of chimeric antibody >VxP037-01LC (SEQ ID NO:7))/>VxPO37-01HC (SEQ ID NO:57). The mean fluorescence value for each antibody is divided by the mean fluorescence value for the chimeric antibody.

rat CD47 = target: T2, rat CD47; assay: flow cytometry on RBCs, CHO supernatant 10 ng/ml
Description: as §2

dog CD47 = target: T3, dog CD47; assay: flow cytometry on RBCs, CHO supernatant 10 ng/ml
Description: as §2

human CD47 [4] = target: T5, human CD47; assay: flow cytometry on RBCs, CHO supernatant 10 ng/ml
Description: as §2

mouse CD47 [5] = target: T1, mouse CD47; assay: flow cytometry on RBCs, CHO supernatant 10 ng/ml
Description: as §2

pig CD47 = target: T4, pig CD47; assay: flow cytometry on RBCs, CHO supernatant 10 ng/ml
Description: as §2

human CD47 [6] = target: T5, human CD47; assay: flow cytometry on human RBCs, non-linear fit of median fluorescence
Description: as §2

T5 sequence (Q08722 19-323): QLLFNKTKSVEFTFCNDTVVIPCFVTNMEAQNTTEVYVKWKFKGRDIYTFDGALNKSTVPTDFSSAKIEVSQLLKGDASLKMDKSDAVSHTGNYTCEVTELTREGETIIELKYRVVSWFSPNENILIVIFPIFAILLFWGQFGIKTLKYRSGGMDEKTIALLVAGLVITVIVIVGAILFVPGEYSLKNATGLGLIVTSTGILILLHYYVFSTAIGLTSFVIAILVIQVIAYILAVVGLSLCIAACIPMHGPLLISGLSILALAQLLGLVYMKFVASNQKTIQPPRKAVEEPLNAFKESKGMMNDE

| Binder | Kd (mouse CD47 [1]) | Kd (human CD47 [2]) | Kd (human CD47 [3]) | mean fluorescence relative to chimeric antibody (rat CD47) | mean fluorescence relative to chimeric antibody (dog CD47) | mean fluorescence relative to chimeric antibody (human CD47 [4]) | mean fluorescence relative to chimeric antibody (mouse CD47 [5]) | mean fluorescence relative to chimeric antibody (pig CD47) | Kd (human CD47 [6]) |
| --- | --- | --- | --- | --- | --- | --- | --- | --- | --- |
| Clone 1 (pVxK7b-037-hum01-LC / pVxK7b-037-hum01-HC) (antibody, human IgG1, kappa, also called Cl 1) heavy: not shown light: DIVMTQTPLSLPVTPGEPASISCRSSQSLVHSNGNTYLHWYQQKPGKAPKLLIYKVSYRFSGVPDRFSGSGSGTDFTLKISRVEAEDVGVYYCSQNTHVPRTFGQGTKVEIKRTVAAPSVFIFPPSDEQLKSGTASVVCLLNNFYPREAKVQWKVDNALQSGNSQESVTEQDSKDSTYSLSSTLTLSKADYEKHKVYACEVTHQGLSSPVTKSFNRGEC |  |  | 1.51 nM | 2.7 ratio | 1 ratio | 1.1 ratio | 1.7 ratio | 1.3 ratio | 0.226 µg/mL |
| Clone 23.2 (hum23 IgG4 S228P L235E) (antibody, IgG4 S228P L235E) heavy: not shown light: DIVMTQTPLSLPVTPGEPASISCRSSQSLVHSNGNTYLHWYQQKPGKAPKLLIYKVSYRFSGVPDRFSGSGSGTDFTLKISRVEAEDVGVYYCSQNTHVPRTFGQGTKVEIKRTVAAPSVFIFPPSDEQLKSGTASVVCLLNNFYPREAKVQWKVDNALQSGNSQESVTEQDSKDSTYSLSSTLTLSKADYEKHKVYACEVTHQGLSSPVTKSFNRGEC | 0.192 nM | 0.195 nM |  |  |  |  |  |  |  |
| Clone 20.2 (hum20 IgG4 S228P L235E) (antibody, IgG4 S228P L235E) heavy: not shown light: DIVMTQTPLSLPVTPGEPASISCRSSQSLVHSNGNTYLHWYLQKPGQSPQLLIYKVSYRFSGVPDRFSGSGSGTDFTLKISRVEAEDVGVYYCSQNTHVPRTFGQGTKVEIKRTVAAPSVFIFPPSDEQLKSGTASVVCLLNNFYPREAKVQWKVDNALQSGNSQESVTEQDSKDSTYSLSSTLTLSKADYEKHKVYACEVTHQGLSSPVTKSFNRGEC | 0.354 nM | 0.114 nM |  |  |  |  |  |  |  |
| Clone 20.1 (hum20 IgG1 N297Q) (antibody, IgG1 N297Q) heavy: QITLKESGPTLVKPTQTLTLTCTFSGYTFTNYYVFWVRQAPGQGLEWMGDINPVNGDTNFNEKFKNRVTITADKSTSTAYMELSSLRSEDTAVYYCARGGYTMDYWGQGTLVTVSSASTKGPSVFPLAPSSKSTSGGTAALGCLVKDYFPEPVTVSWNSGALTSGVHTFPAVLQSSGLYSLSSVVTVPSSSLGTQTYICNVNHKPSNTKVDKKVEPKSCDKTHTCPPCPAPELLGGPSVFLFPPKPKDTLMISRTPEVTCVVVDVSHEDPEVKFNWYVDGVEVHNAKTKPREEQYQSTYRVVSVLTVLHQDWLNGKEYKCKVSNKALPAPIEKTISKAKGQPREPQVYTLPPSR light: DIVMTQTPLSLPVTPGEPASISCRSSQSLVHSNGNTYLHWYLQKPGQSPQLLIYKVSYRFSGVPDRFSGSGSGTDFTLKISRVEAEDVGVYYCSQNTHVPRTFGQGTKVEIKRTVAAPSVFIFPPSDEQLKSGTASVVCLLNNFYPREAKVQWKVDNALQSGNSQESVTEQDSKDSTYSLSSTLTLSKADYEKHKVYACEVTHQGLSSPVTKSFNRGEC | 0.237 nM | 0.121 nM |  |  |  |  |  |  |  |
| Clone 13 (pVxK7b-037-hum13-LC / pVxK7b-037-hum13-HC) (antibody, human IgG1, kappa, also called Cl 13) heavy: not shown light: DIVMTQTPLSLPVTPGEPASISCRSSQSLVHSNGNTYLHWYQQKPGKAPKLLIYKVSYRFSGVPDRFSGSGSGTDFTLKISRVEAEDVGVYYCSQNTHVPRTFGQGTKVEIKRTVAAPSVFIFPPSDEQLKSGTASVVCLLNNFYPREAKVQWKVDNALQSGNSQESVTEQDSKDSTYSLSSTLTLSKADYEKHKVYACEVTHQGLSSPVTKSFNRGEC |  |  | 0.58 nM | 3.1 ratio | 1 ratio | 1.2 ratio | 1.3 ratio | 1.4 ratio | 0.0864 µg/mL |

Continued by falling Kd (mouse CD47 [1]), values first:

| Kd (mouse CD47 [1]) | Kd (human CD47 [2]) | Kd (human CD47 [3]) | mean fluorescence relative to chimeric antibody (rat CD47) | mean fluorescence relative to chimeric antibody (dog CD47) | mean fluorescence relative to chimeric antibody (human CD47 [4]) | mean fluorescence relative to chimeric antibody (mouse CD47 [5]) | mean fluorescence relative to chimeric antibody (pig CD47) | Kd (human CD47 [6]) | Binder |
| --- | --- | --- | --- | --- | --- | --- | --- | --- | --- |
| 0.198 nM | 0.0855 nM |  |  |  |  |  |  |  | Clone 17.1 (hum17 IgG1 N297Q) (antibody, IgG1 N297Q) heavy: EVQLVQSGAEVKKPGATVKISCKVSGYTFTNYYVFWIRQPPGKGLEWIGDINPVNGDTNFNEKFKNRVTITADKSTSTAYMELSSLRSEDTAVYYCARGGYTMDYWGQGTLVTVSSASTKGPSVFPLAPSSKSTSGGTAALGCLVKDYFPEPVTVSWNSGALTSGVHTFPAVLQSSGLYSLSSVVTVPSSSLGTQTYICNVNHKPSNTKVDKKVEPKSCDKTHTCPPCPAPELLGGPSVFLFPPKPKDTLMISRTPEVTCVVVDVSHEDPEVKFNWYVDGVEVHNAKTKPREEQYQSTYRVVSVLTVLHQDWLNGKEYKCKVSNKALPAPIEKTISKAKGQPREPQVYTLPPSR light: AIQLTQSPSSLSASVGDRVTITCRSSQSLVHSNGNTYLHWYQQKPGQAPRLLIYKVSYRFSGVPDRFSGSGSGTDFTLKISRVEAEDVGVYYCSQNTHVPRTFGQGTKVEIKRTVAAPSVFIFPPSDEQLKSGTASVVCLLNNFYPREAKVQWKVDNALQSGNSQESVTEQDSKDSTYSLSSTLTLSKADYEKHKVYACEVTHQGLSSPVTKSFNRGEC |
| 0.147 nM | 0.121 nM |  |  |  |  |  |  |  | Clone 17.2 (hum17 IgG4 S228P L235E) (antibody, IgG4 S228P L235E) heavy: not shown light: AIQLTQSPSSLSASVGDRVTITCRSSQSLVHSNGNTYLHWYQQKPGQAPRLLIYKVSYRFSGVPDRFSGSGSGTDFTLKISRVEAEDVGVYYCSQNTHVPRTFGQGTKVEIKRTVAAPSVFIFPPSDEQLKSGTASVVCLLNNFYPREAKVQWKVDNALQSGNSQESVTEQDSKDSTYSLSSTLTLSKADYEKHKVYACEVTHQGLSSPVTKSFNRGEC |
| 0.0922 nM | 0.0996 nM |  |  |  |  |  |  |  | Clone 23.1 (hum23 IgG1 N297Q) (antibody, IgG1 N297Q) heavy: QVQLQESGPGLVKPSQTLSLTCTVSGYTFTNYYVFWVRQARGQRLEWIGDINPVNGDTNFNEKFKNRLTISKDTSKNQVVLTMTNMDPVDTATYYCARGGYTMDYWGQGTLVTVSSASTKGPSVFPLAPSSKSTSGGTAALGCLVKDYFPEPVTVSWNSGALTSGVHTFPAVLQSSGLYSLSSVVTVPSSSLGTQTYICNVNHKPSNTKVDKKVEPKSCDKTHTCPPCPAPELLGGPSVFLFPPKPKDTLMISRTPEVTCVVVDVSHEDPEVKFNWYVDGVEVHNAKTKPREEQYQSTYRVVSVLTVLHQDWLNGKEYKCKVSNKALPAPIEKTISKAKGQPREPQVYTLPPSR light: DIVMTQTPLSLPVTPGEPASISCRSSQSLVHSNGNTYLHWYQQKPGKAPKLLIYKVSYRFSGVPDRFSGSGSGTDFTLKISRVEAEDVGVYYCSQNTHVPRTFGQGTKVEIKRTVAAPSVFIFPPSDEQLKSGTASVVCLLNNFYPREAKVQWKVDNALQSGNSQESVTEQDSKDSTYSLSSTLTLSKADYEKHKVYACEVTHQGLSSPVTKSFNRGEC |
